This note sets out measurements from PMC2527131.

The experiment deals with BLyS receptors on human B cells (human (endogenous in peripheral blood B cells)).

In the case of “recombinant human FLAG-tagged BLyS (from UniProt Q9Y275 134-285) (ligand)”, the nuclear localization of NF-κB p52 in human B cells after 48 h with 100 ng/ml BLyS (Western blot of nuclear extracts, three B cell preparations), fold over unstimulated B cells stood at 7.1 fold.

Turning to “FLAG-tagged murine BLyS (from UniProt Q9WU72 127-309) (ligand)”, the nuclear localization of NF-κB p52 in human B cells after 48 h with 100 ng/ml BLyS (Western blot of nuclear extracts, three B cell preparations), fold over unstimulated B cells amounted to 2.4 fold.
